Laboratory results taken from patent US20250163186A1 (PHYLAXIS BIOSCIENCE, published 2025).
Changes are numbered by the printed parent chain. Read-outs that look alike come from different tables or passages of the source. One block for each binder: values may come before it.

Assays:
Assay in all cases: flow cytometry, 293 cells expressing human IgE CH2-4
[1] = molecular target: T1, CH2-4 constant domains of human IgE linked to a transmembrane protein, on 293 cells (human, UniProt P01854-1 104-428)
T1 construct: domain: CH2-4 constant domains; also called human IgE-expressing 293 cells
Protocol: (§1) First, 25 μg of DNA was added to Opti-MEM Reduced Serum Medium (Gibco) mixed with 75 μL of 40 kDa Polyethylenimine (PEI) for a final concentration of 1 μg DNA and 2.5 μg PEI per mL of culture volume. The plasmid DNA was allowed to pre-complex with PEI for 15 minutes before transferring the mixture to 25 mL of 293 cells in a shake flask at a density of 2×10⁶ cells/mL. […] Next, 50 μL of cells were transferred to wells of a round-bottom 96-well assay plate for a total of 50,000 293 cells per well. In a separate 96-well plate, monomeric VHH-hIgG1-Fc fusion proteins were titrated 1:5 in a 8-point dilution series starting at 1 μM in FACS Buffer with the 8th point containing no antibody. 50 μL from each antibody dilution was added to wells containing 50 μL of FACS Buffer with transfected 293 cells which produced a 2-fold dilution of the antibody concentrations from the dilution series resulting in a 500 nM final, starting concentration of the test article titration. The test articles and 293 cells were incubated together at 4° C. for 30 minutes. Next, the 96-well plates were centrifuged at 400×g for 5 minutes and the FACS buffer containing unbound antibody was decanted. Cells were washed 1× with 150 μL 4° C. FACS Buffer. […] The cells were incubated with the fluorophore conjugated detection antibody at 4° C. for 20 minutes. 293 cells were then centrifuged and washed once as described above. Cell pellets were resuspended in 30 μL FACS Buffer and analyzed on an iQue Screener Plus flow cytometer (Sartorius, IntelliCyt) with a 1 second sip time and 1 second void time. Mean fluorescent intensity was calculated using iQue onboard software gating on GFP+ or citrine+ cells.

[2] = molecular target: T1, CH2-4 constant domains of human IgE …; remark: listed apart in the source
Protocol: as §1

[3] = molecular target: T1, CH2-4 constant domains of human IgE …; remark: listed apart in the source
Protocol: as §1

[4] = molecular target: T1, CH2-4 constant domains of human IgE …; remark: listed apart in the source
Protocol: as §1

[5] = molecular target: T1, CH2-4 constant domains of human IgE …; remark: listed apart in the source
Protocol: as §1

[6] = molecular target: T1, CH2-4 constant domains of human IgE …; remark: listed apart in the source
Protocol: as §1

T1 sequence (P01854 other isoform, or with tags, fused parts or gaps): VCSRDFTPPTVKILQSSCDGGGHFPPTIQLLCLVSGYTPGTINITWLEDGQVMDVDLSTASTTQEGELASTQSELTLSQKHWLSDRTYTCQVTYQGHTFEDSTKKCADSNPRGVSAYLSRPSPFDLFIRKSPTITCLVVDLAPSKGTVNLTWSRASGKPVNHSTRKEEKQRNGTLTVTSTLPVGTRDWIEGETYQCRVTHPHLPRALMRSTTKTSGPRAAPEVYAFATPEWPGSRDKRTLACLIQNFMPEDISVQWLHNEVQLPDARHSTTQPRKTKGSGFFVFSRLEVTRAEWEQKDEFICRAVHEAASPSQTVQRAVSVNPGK

B1: hzB10v21-NNT (Fc fusion)
VHH-Fc: EVQLLESGGGEVQPGGSLRLSCVASGLTFSSYNMGWLRQAPGKEREFVGLSGSSSTSTYYADSVKGRFTISRDNSKNTVYLQMSSLKPEDTAVYYCAARRLLSTYWSDRSWDFWGQGTQVTVEPGGPSVFLFPPKPKDTLMISRTPEVTCVVVDVSHEDPEVKFNWYVDGVEVHNAKTKPREEQYNSTYRVVSVLTVLHQDWLNGKEYKCKVSNKALPAPIEKTISKAKGQPREPQVYTLPPSRDELTKNQVNLTCLVKGFYPSDIAVEWESNGQPENNYKTTPPVLDSDGSFFLNSTLTVDKSRWQQGNVFSCSVMHEALHNHYTQKSLSLSPGK
notes: monomeric
Bmax [1]: 1.72e+06 MFI | Kd [1]: 6.4 nM

B2: hzB10v26-NNT (Fc fusion)
VHH-Fc: B1 VHH-Fc with L50M, S84N, L101M, E123K
notes: monomeric
Kd [1]: 1.43 nM

B3: hzB10v24-NNT (Fc fusion)
VHH-Fc: B1 VHH-Fc with L37V, S84N
notes: monomeric
Bmax [1]: 1.92e+06 MFI | Kd [1]: 2.52 nM

B4: hzB10v37-NNT (Fc fusion)
VHH-Fc: B1 VHH-Fc with D62E, S84T, P88A, Q119L
notes: monomeric
Bmax [2]: 1.9e+06 MFI | Kd [2]: 1.51 nM

B5: hzB10v30-NNT (Fc fusion)
VHH-Fc: B1 VHH-Fc with D62E, S84T, K87R, P88A
notes: monomeric
Kd [2]: 1.69 nM | Bmax [3]: 725000 MFI | Kd [3]: 1.63 nM

B7: hzB10v39-NNT (Fc fusion)
VHH-Fc: B1 VHH-Fc with D62E, S84T, K87R, P88A, Q119L
notes: monomeric
Kd [2]: 1.37 nM

B11: hzB10v25-NNT (Fc fusion)
VHH-Fc: B1 VHH-Fc with G49S, S84N
notes: monomeric
Bmax [1]: 2.01e+06 MFI | Kd [1]: 2.8 nM

B12: hzB10v23-NNT (Fc fusion)
VHH-Fc: B1 VHH-Fc with S84N, P88A
notes: monomeric
Bmax [1]: 1.96e+06 MFI | Kd [1]: 1.05 nM

B13: hzB10v22-NNT (Fc fusion)
VHH-Fc: B1 VHH-Fc with S84N, K87R
notes: monomeric
Bmax [1]: 2.08e+06 MFI | Kd [1]: 2.39 nM

B14: hzB10v38-NNT (Fc fusion)
VHH-Fc: B1 VHH-Fc with D62E, S84T, K87R, Q119L
notes: monomeric
Bmax [2]: 2.02e+06 MFI | Kd [2]: 0.98 nM

B16: Anti-IgE sdAb B10 (parental B10 VHH, dimeric VHH-hIgG1-Fc xELL fusion) (Fc fusion)
chain: EVQLVQSGGELVQAGGSLRLSCVASGLTFSSYNMGWLRQAPGKEREFVGMSGSSSTSTYYADSVKGRFTISRDNSKNTVYLQMNSLKPEDTAVYYCAARRMLSTYWSDRSWDFWGQGTQVTVKPDKTHTCPPCPAPGGPSVFLFPPKPKDTLMISRTPEVTCVVVDVSHEDPEVKFNWYVDGVEVHNAKTKPREEQYNSTYRVVSVLTVLHQDWLNGKEYKCKVSNKALPAPIEKTISKAKGQPREPQVYTLPPSRDELTKNQVSLTCLVKGFYPSDIAVEWESNGQPENNYKTTPPVLDSDGSFFLYSKLTVDKSRWQQGNVFSCSVMHEALHNHYTQKSLSLSPGK
Kd [5]: 0.893 nM | Bmax [6]: 2.25e+06 MFI | Kd [6]: 0.893 nM

The remaining lines, values ahead:

Bmax [4]: 1.45e+06 MFI | Kd [4]: 2.27 nM
B6: hzB10v42-NNT (Fc fusion)
VHH-Fc: B1 VHH-Fc with D62E, N74S, S84T, K87R, P88A, Q119L
notes: monomeric

Bmax [4]: 1.42e+06 MFI | Kd [4]: 2.18 nM
B8: hzB10v43-NNT (Fc fusion)
VHH-Fc: B1 VHH-Fc with D62E, N74T, S84T, K87R, P88A, Q119L
notes: monomeric

Bmax [4]: 1.38e+06 MFI | Kd [4]: 2.62 nM
B9: hzB10v40 monomeric VHH-hIgG1-Fc fusion (Fc NNT) (Fc fusion)
chain: B1 VHH-Fc with D62E, S75A, S84T, K87R, P88A, Q119L
notes: Humanized variants were tested as monomeric fusions with the non-dimerizing Fc NNT

Bmax [4]: 1.38e+06 MFI | Kd [4]: 2.37 nM
B10: hzB10v44-NNT (Fc fusion)
VHH-Fc: B1 VHH-Fc with D62E, S75T, S84T, K87R, P88A, Q119L
notes: monomeric

Bmax [4]: 1.33e+06 MFI | Kd [4]: 2.26 nM
B15: hzB10v41-NNT (Fc fusion)
VHH-Fc: B1 VHH-Fc with D62E, N74Q, S84T, K87R, P88A, Q119L
notes: monomeric
